Measurements reported in PMC12747932, “Crystal structures of Kif2A complexed with WDR5 reveal the structural plasticity of WIN-S7 sites” (Acta Biochimica et Biophysica Sinica, 2025).
One block for each binder: values may come before it.

Assays:
Assay in all cases: ITC; peptide (approximately 1 mM) titrated into protein (0.05 mM), 20°C, Buffer E (20 mM Tris-HCl, 200 mM NaCl, pH 7.5), single binding site model, duplicate
Conditions in all cases: both partners purified
[1] = target: human WDR5 seven tandem WD-40 domain (residues 24–334) (human, UniProt P61964 24-334)
[2] = target: human WDR5 seven tandem WD-40 domain (residues 24–334) (human, UniProt P61964 24-334); remark: listed apart in the source
[3] = target: WDR5 Y191F variant (residues 24–334) (human, UniProt P61964 24-334, Y191F)

Binder: GSARARPAQ [Kif2A S121A peptide]
Kd [1]: 2.16 µM | dH [1]: -54.39 ± 0.502 kJ/mol | stoichiometry N [1]: 0.97

B2: Kif2A 114–122 peptide (peptide)
peptide: GSARARPSQ
notes: also called wild-type Kif2A; source: synthetic peptide (GenScript)
Kd [2]: 0.78 µM | dH [2]: -65.69 ± 0.544 kJ/mol | stoichiometry N [2]: 0.91 | Kd [3]: 0.96 µM | dH [3]: -37.66 ± 0.335 kJ/mol | stoichiometry N [3]: 1.27

More lines, in order of falling Kd [2], values ahead:

Kd [2]: 6.71 µM | dH [2]: -38.5 ± 0.46 kJ/mol | stoichiometry N [2]: 1.19
B1: Kif2A 114–120 peptide (peptide)
peptide: GSARARP
notes: also called truncated Kif2A; source: synthetic peptide (GenScript)

Kd [2]: 3.72 µM | dH [2]: -44.4 ± 0.586 kJ/mol | stoichiometry N [2]: 0.94
B3: Kif2A 114–122 (S121G) peptide (peptide)
peptide: GSARARPGQ
notes: also called Kif2A^S121G; source: synthetic peptide (GenScript)
